We go through one substance from patent US20030027358A1.

This test deals with MHC Class I heavy chains (HLA-A, B and C molecules) on CB23, HSB2, MP-1, Jurkat, primary T cells, primary B cells and primary NK cells. Put plainly: flow cytometry competition; W6/32 at 0, 2, 5 or 10 µg in 100 µL, competitor 5 µg P3G2/Fc. In general terms: Flow cytometry measures light scatter and fluorescence of single cells or particles in a stream.

In turn, “W6/32 (ATCC HB-95), an antibody against MHC Class I heavy chains” registered an amount of W6/32 at which P3G2 binding was totally blocked of 5 µg.
